The supplement of paper PMC10126150
± gives the standard deviation of the averaged measurements.

Tested on: ATP
Assay: switch fluorescence ratio, 500 uM ATP over buffer (Cy3 cluster intensity, sum of 5 cycles each) (fold (ratio)); higher = stronger signal-on switching upon ATP binding; sequences stand for … in TCGTCGGCAGCGTCAGATGTGTATAAGAGACAGTTTTTTTTTTTTTTTTTTTTTTTTT…TC
Conditions: aptamer strand: ATP DNA aptamer (quencher-CACCTGGGGGAGTATTGCGGAGGAAGG + anchor), 100 nM annealed; ATP concentration: 500 uM
Summary of the method: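 Clusters with intensities outside 100-1000 RFU were excluded. The remaining Cy3-labelled switching-strand clusters on a modified Illumina MiSeq flow-cell had been annealed to 100 nM quencher-labelled ATP aptamer and imaged in selection buffer, then after 15 min with 500 uM ATP at 22 °C, for five cycles separated by NaOH stripping and re-annealing. The fluorescence ratio, averaged per switch-domain sequence, is each cluster's summed target-cycle Cy3 intensity over its summed buffer-cycle Cy3 intensity.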
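Note: ATP exposure 15 min at 22 °C before imaging.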

## AGGGAACTGT
  switch fluorescence ratio: 0.97 ± 0.056

## AGGGAAGCTT
  switch fluorescence ratio: 0.972 ± 0.035

## AGGGAATAGA
  switch fluorescence ratio: 0.989 ± 0.0094

## AGGGAATAGG
  switch fluorescence ratio: 1.01 ± 0.041

## AGGGAATATT
  switch fluorescence ratio: 1.01 ± 0.027

## AGGGACATGC
  switch fluorescence ratio: 1.0581 ± 0.00016

## AGGGACGAAT
  switch fluorescence ratio: 1.25 ± 0.092

## AGGGACGGAG
  switch fluorescence ratio: 1.01 ± 0.034

## AGGGACTGGT
  switch fluorescence ratio: 1.01 ± 0.036

## AGGGAGAAAA
  switch fluorescence ratio: 0.974 ± 0.039

## AGGGAGAGCG
  switch fluorescence ratio: 0.991 ± 0.071

## AGGGAGAGTC
  switch fluorescence ratio: 1.036 ± 0.0025

## AGGGAGATAG
  switch fluorescence ratio: 0.986 ± 0.016

## AGGGAGCAGA
  switch fluorescence ratio: 0.9948 ± 0.0059

## AGGGAGCGAA
  switch fluorescence ratio: 1.003 ± 0.0097

## AGGGAGCGGC
  switch fluorescence ratio: 1.11 ± 0.035

## AGGGAGGGCT
  switch fluorescence ratio: 1.02 ± 0.02

## AGGGAGGTGG
  switch fluorescence ratio: 1.02 ± 0.026

## AGGGAGTTTG
  switch fluorescence ratio: 0.983 ± 0.021

## AGGGATACCT
  switch fluorescence ratio: 1.04 ± 0.018

## AGGGATCGG
  switch fluorescence ratio: 1 ± 0.05

## AGGGATCGGG
  switch fluorescence ratio: 1.002 ± 0.01

## AGGGATCTTT
  switch fluorescence ratio: 0.963 ± 0.038

## AGGGATTATT
  switch fluorescence ratio: 1.02 ± 0.016

## AGGGCACAGT
  switch fluorescence ratio: 0.995 ± 0.016

## AGGGCAGCGT
  switch fluorescence ratio: 1.004 ± 0.0041

## AGGGCAGGTA
  switch fluorescence ratio: 1 ± 0.015

## AGGGCCGAT
  switch fluorescence ratio: 0.955 ± 0.046

## AGGGCCGGGC
  switch fluorescence ratio: 0.962 ± 0.044

## AGGGCCGGTA
  switch fluorescence ratio: 1.03 ± 0.026

## AGGGCGCCCG
  switch fluorescence ratio: 0.9884 ± 0.0023

## AGGGCGGAGT
  switch fluorescence ratio: 0.994 ± 0.022

## AGGGCTATGT
  switch fluorescence ratio: 0.9804 ± 0.005

## AGGGCTCGGG
  switch fluorescence ratio: 1.012 ± 0.0075

## AGGGCTGCAT
  switch fluorescence ratio: 0.9874 ± 0.0035

## AGGGCTGCCT
  switch fluorescence ratio: 1.05 ± 0.096

## AGGGCTGGGT
  switch fluorescence ratio: 1 ± 0.033

## AGGGCTTAGT
  switch fluorescence ratio: 0.995 ± 0.022

## AGGGCTTGAA
  switch fluorescence ratio: 0.991 ± 0.018

## AGGGCTTGTG
  switch fluorescence ratio: 0.987 ± 0.012

## AGGGCTTTTA
  switch fluorescence ratio: 1 ± 0.013

## AGGGGAAGAG
  switch fluorescence ratio: 0.994 ± 0.07

## AGGGGAAGGT
  switch fluorescence ratio: 0.984 ± 0.021

## AGGGGAATAG
  switch fluorescence ratio: 1.01 ± 0.016

## AGGGGAATAT
  switch fluorescence ratio: 1.03 ± 0.017

## AGGGGAATTT
  switch fluorescence ratio: 0.992 ± 0.03

## AGGGGACTTC
  switch fluorescence ratio: 1.04 ± 0.015

## AGGGGAGGGA
  switch fluorescence ratio: 1 ± 0.027

## AGGGGATTGC
  switch fluorescence ratio: 0.988 ± 0.019

## AGGGGCACTC
  switch fluorescence ratio: 0.992 ± 0.028

## AGGGGCAGCT
  switch fluorescence ratio: 0.977 ± 0.024

## AGGGGCATTC
  switch fluorescence ratio: 1.03 ± 0.064

## AGGGGCCATT
  switch fluorescence ratio: 1.009 ± 0.0098

## AGGGGCGAGC
  switch fluorescence ratio: 0.9616 ± 0.005

## AGGGGCGGTT
  switch fluorescence ratio: 0.978 ± 0.02

## AGGGGGAAGA
  switch fluorescence ratio: 1 ± 0.019

## AGGGGGAGGC
  switch fluorescence ratio: 1.01 ± 0.076

## AGGGGGCATT
  switch fluorescence ratio: 0.98 ± 0.011

## AGGGGGCGAT
  switch fluorescence ratio: 1.01 ± 0.039

## AGGGGGCGTT
  switch fluorescence ratio: 1.02 ± 0.042

## AGGGGGCTGC
  switch fluorescence ratio: 0.995 ± 0.023

## AGGGGGGATA
  switch fluorescence ratio: 1.02 ± 0.074

## AGGGGGGCAA
  switch fluorescence ratio: 1.03 ± 0.13

## AGGGGGGCAC
  switch fluorescence ratio: 0.984 ± 0.025

## AGGGGGGCGG
  switch fluorescence ratio: 0.992 ± 0.039

## AGGGGGGGC
  switch fluorescence ratio: 0.991 ± 0.015

## AGGGGGGGGA
  switch fluorescence ratio: 1.01 ± 0.05

## AGGGGGGTGG
  switch fluorescence ratio: 0.994 ± 0.052

## AGGGGGGTGT
  switch fluorescence ratio: 1.03 ± 0.028

## AGGGGGGTT
  switch fluorescence ratio: 1.01 ± 0.06

## AGGGGGTAAA
  switch fluorescence ratio: 0.975 ± 0.021

## AGGGGGTACG
  switch fluorescence ratio: 1.01 ± 0.035

## AGGGGGTAGC
  switch fluorescence ratio: 0.992 ± 0.047

## AGGGGGTCGG
  switch fluorescence ratio: 1.01 ± 0.03

## AGGGGGTGGC
  switch fluorescence ratio: 0.986 ± 0.048

## AGGGGTATAG
  switch fluorescence ratio: 0.995 ± 0.068

## AGGGGTATGT
  switch fluorescence ratio: 0.989 ± 0.023

## AGGGGTCCTT
  switch fluorescence ratio: 0.997 ± 0.026

## AGGGGTCGGC
  switch fluorescence ratio: 0.986 ± 0.016

## AGGGGTGCAG
  switch fluorescence ratio: 0.995 ± 0.01

## AGGGGTGCTG
  switch fluorescence ratio: 0.975 ± 0.039

## AGGGGTGGAA
  switch fluorescence ratio: 0.975 ± 0.022

## AGGGGTGTGG
  switch fluorescence ratio: 1.01 ± 0.017

## AGGGGTTAAC
  switch fluorescence ratio: 1.04 ± 0.042

## AGGGGTTCGG
  switch fluorescence ratio: 0.992 ± 0.026

## AGGGGTTTAT
  switch fluorescence ratio: 0.988 ± 0.021

## AGGGGTTTCG
  switch fluorescence ratio: 0.994 ± 0.025

## AGGGTAATTT
  switch fluorescence ratio: 1.043 ± 0.0063

## AGGGTACTGC
  switch fluorescence ratio: 1.02 ± 0.039

## AGGGTAGAGC
  switch fluorescence ratio: 1.09 ± 0.15

## AGGGTAGATC
  switch fluorescence ratio: 1.03 ± 0.018

## AGGGTAGCTT
  switch fluorescence ratio: 0.999 ± 0.031

## AGGGTAGGGA
  switch fluorescence ratio: 0.9917 ± 0.004

## AGGGTAGGGT
  switch fluorescence ratio: 1.01 ± 0.033

## AGGGTAGTCC
  switch fluorescence ratio: 0.986 ± 0.03

## AGGGTATCAG
  switch fluorescence ratio: 1.01 ± 0.039

## AGGGTATTGT
  switch fluorescence ratio: 1.02 ± 0.075

## AGGGTCACTC
  switch fluorescence ratio: 0.9857 ± 0.0043

## AGGGTCAGGA
  switch fluorescence ratio: 0.996 ± 0.021

## AGGGTCGCCT
  switch fluorescence ratio: 1 ± 0.04
